Reference: PMC2924460 (Arteriosclerosis, thrombosis, and vascular biology, 2010)

Target: the molecule itself
Assay: FRET or BRET

B1: thromboxane A2 receptor alpha (TPα), fused to renilla luciferase (TPαrLUC) or to yellow fluorescent protein (TPαYFP) (receptor, UniProt P21731 1-343, looked up)
chain: MWPNGSSLGPCFRPTNITLEERRLIASPWFAASFCVVGLASNLLALSVLAGARQGGSHTRSSFLTFLCGLVLTDFLGLLVTGTIVVSQHAALFEWHAVDPGCRLCRFMGVVMIFFGLSPLLLGAAMASERYLGITRPFSRPAVASQRRAWATVGLVWAAALALGLLPLLGVGRYTVQYPGSWCFLTLGAESGDVAFGLLFSMLGGLSVGLSFLLNTVSVATLCHVYHGQEAAQQRPRDSEVEMMAQLLGIMVVASVCWLPLLVFIAQTVLRNPPAMSPAGQLSRTTEKELLIYLRVATWNQILDPWVYILFRRAVLRRLQPRLSTRPRSLSLQPQLTQRSGLQ
- BRET50: 1.24 YFP fold over basal
